Source: patent US20110038892A1 (priority 2009, published 2011)
No end group written: not given here. *: point of attachment. FITC = O=C1OC2(c3ccc(O)cc3Oc3cc(O)ccc32)c2ccc(NC(=S)*)cc21; Ahx = NCCCCCC(=O)O

B1: VAMP8 (protein)
VAMP8: EEASGSAGNDRVRNLQSEVEGVKNIMTQNVERILSRGENLDHLRNKTEDLEATSEHFKTTSQKVARKFWWKNVK
B2: VAMP5 (protein)
VAMP5: AGKELKQCQQQADEVTEIMLNNFDKVLERHGKLAELEQRSDQLLDMSSAFSKTTKTLAQQKRWENIRCR
B3: VAMP7 (protein)
VAMP7: AILFAVVARGTTILAKHAWCGGNFLEVTEQILAKIPSENNKLTYSHGNYLFHYICQDRIVYLCITDDDFERSRAFSFLNEVKKRFQTTYGSRAQTALPYAMNSEFSSVLAAQLKHHSENKSLDKVMETQAQVDELKGIMVRNIDLVAQRGERLELLIDKTENLVDSSVTFKTTSRNLARAMCMKNIK
B4: VAMP4 (protein)
VAMP4: PPKFKRHLNDDDVTGSVKSERRNLLEDDSDEEEDFFLRGPSGPRFGPRNDKIKHVQNQVDEVIDVMQENITKVIERGERLDELQDKSESLSDNATAFSNRSKQLRRQMWWRGCK

Key:
SNARE assemblies = assay type: binding
[1] = target: syntaxin1 (stx1) and SNAP25 (S25) (Rattus norvegicus, UniProt P32851+P60881)
Chain of syntaxin1 (stx1) and SNAP25 (S25) (P60881 whole entry): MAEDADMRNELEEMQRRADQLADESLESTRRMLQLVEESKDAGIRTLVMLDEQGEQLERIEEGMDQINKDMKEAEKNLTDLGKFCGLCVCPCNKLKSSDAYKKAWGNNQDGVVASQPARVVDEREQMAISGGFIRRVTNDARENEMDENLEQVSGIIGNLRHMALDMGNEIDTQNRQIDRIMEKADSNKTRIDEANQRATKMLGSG
Chain of syntaxin1 (stx1) and SNAP25 (S25) (P32851 whole entry): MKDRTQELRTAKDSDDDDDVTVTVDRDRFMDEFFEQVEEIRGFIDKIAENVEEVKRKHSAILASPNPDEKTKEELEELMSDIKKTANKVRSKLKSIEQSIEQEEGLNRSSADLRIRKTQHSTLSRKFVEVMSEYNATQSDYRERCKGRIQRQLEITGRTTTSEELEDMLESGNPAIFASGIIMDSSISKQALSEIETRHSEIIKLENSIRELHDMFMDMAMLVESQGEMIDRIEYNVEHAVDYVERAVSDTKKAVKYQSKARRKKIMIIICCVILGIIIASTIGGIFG

Chain of S1S23 (O00161 whole entry): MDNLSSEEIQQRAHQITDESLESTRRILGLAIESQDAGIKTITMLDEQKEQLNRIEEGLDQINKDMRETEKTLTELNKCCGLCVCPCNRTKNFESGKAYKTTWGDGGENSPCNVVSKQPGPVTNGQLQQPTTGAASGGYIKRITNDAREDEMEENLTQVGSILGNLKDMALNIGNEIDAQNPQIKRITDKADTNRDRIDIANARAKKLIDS
Chain of S3S23 (O00161 whole entry): as above

Molecule	interaction with SNARE assemblies (SNARE assemblies)	formation of SDS-resistant complex [1]	Tm (S1S25) [°C]	Tm (S3S25) [°C]	Tm (S1S23) [°C]	Tm (S3S23) [°C]
Ac-ERKAKYAKMEAEREVMRQGIRDKYGIKKGSGSGGIKVAV-NH2 [29 amino acid complexin 1 peptide]	can interact with SNARE assemblies	–	–	–	–	–
{FITC-Ahx}-DIMRVNVDKVLERDQKLSELDDRADALQAGASQFETSAAKLA	–	still forms an SDS-resistant complex	–	–	–	–
{FITC-Ahx}-DKVLERDQKLSELDDRADALQAGASQFETSAAKLA [35 amino acid synaptobrevin SNARE motif]	–	forms a complex but it ‘melts’ during gel-electrophoresis	–	–	–	–
synaptobrevin (VAMP2)	–	–	71	59	65	61
B1	–	–	57	48	57	56
B2	–	–	53	42	55	52
B3	–	–	56	45	57	50
B4	–	–	60	53	60	57
